Results on 15 substances are retold here after paper PMC3694306.

The target of assay [1] is EssB-C (C-terminal extracytosolic fragment of EssB, Ala241 to Lys428) (Geobacillus thermodenitrificans NG80-2). The experiment in a line: SEC; soluble fragments; Superdex75 prep grade HR 16/60, buffer C (10 mM sodium phosphate pH 7.8, 20 mM NaCl, 0.5 mM TCEP), column calibrated with molecular mass standards. (In gel filtration, larger molecules generally elute earlier.)
The target is the same in assay [2]. Kind of assay: crystal structure; EssB-C, tetragonal P4(3)2(1)2, two molecules in the asymmetric unit, 2.1 M malate pH 7.0, 3.2 Å; dimer made by crystallographic symmetry.
The target of assay [3] is EssB^Δ R86C (cysteine-free template C48S, C108S, C171S), MTSSL spin-labelled (Geobacillus thermodenitrificans NG80-2). Kind of assay: SEC; detergent-solubilised membrane-bound protein; Superdex200 HR 30/100 GL, buffers with 0.02% DDM and 1 ug/ml DOPC.
The target of assay [4] is EssB-N D54C (cysteine-free template C48S, C108S, C171S), before MTSSL labelling (Geobacillus thermodenitrificans NG80-2). Kind of assay: SEC; EssB-N cysteine mutants before and after MTSSL labelling (data not shown).
Assay [5] deals with EssB^Δ E59C (cysteine-free template C48S, C108S, C171S), MTSSL spin-labelled (Geobacillus thermodenitrificans NG80-2). Kind of assay: SEC; detergent-solubilised membrane-bound protein; Superdex200 HR 30/100 GL, buffers with 0.02% DDM and 1 ug/ml DOPC.
Assay [6] concerns the target EssB-C^Δ (C-terminally truncated extracytosolic fragment of EssB, Ala241 to Gln397) (Geobacillus thermodenitrificans NG80-2). The experiment in a line: crystal structure; EssB-C^Δ, monoclinic C2, four molecules in the asymmetric unit, 3.0 M malonate pH 7.0, 10 mM ZnCl2, 2.4 Å; dimer made by crystallographic symmetry.
Assay [7] has the same target. The experiment in a line: SEC; soluble fragments; Superdex75 prep grade HR 16/60, buffer C (10 mM sodium phosphate pH 7.8, 20 mM NaCl, 0.5 mM TCEP), column calibrated with molecular mass standards.
Assay [8] deals with EssB^Δ E139C (cysteine-free template C48S, C108S, C171S), MTSSL spin-labelled (Geobacillus thermodenitrificans NG80-2). The experiment in a line: SEC; detergent-solubilised membrane-bound protein; Superdex200 HR 30/100 GL, buffers with 0.02% DDM and 1 ug/ml DOPC.
Assay [9] addresses EssB^Δ E197C (cysteine-free template C48S, C108S, C171S), MTSSL spin-labelled (Geobacillus thermodenitrificans NG80-2). The assay is described as above.
The target of assay [10] is EssB^Δ S93C (cysteine-free template C48S, C108S, C171S), MTSSL spin-labelled (Geobacillus thermodenitrificans NG80-2). Described as above.
Assay [11] has as its target EssB^Δ D54C (cysteine-free template C48S, C108S, C171S), MTSSL spin-labelled (Geobacillus thermodenitrificans NG80-2). The description is as above.
Assay [12] has as its target EssB-N (N-terminal, predicted cytoplasmic fragment of EssB, Ser2 to Asp214) (Geobacillus thermodenitrificans NG80-2). Kind of assay: SEC; EssB-N (2 mg) in 100 mM citrate pH 5.5, 300 mM NaCl, 0.5% TCEP, 10% glycerol, 30 min at room temperature, Superdex75 HR 30/100 GL.
For assay [13] the target is unchanged. Kind of assay: native gel or EMSA; blue native PAGE, linear 4-16% gradient Native Bis-Tris gel, 3 ug purified EssB-N. (In EMSA bound probe runs differently from free probe, usually more slowly.)
Assay [14] shares this target. The experiment in a line: SEC; EssB-N (2 mg) in various test buffers with 0.5% TCEP and 10% glycerol (Tris-HCl pH 7.8 with 20 mM NaCl, with or without 5 mM EDTA; phosphate pH 7.8 or Bis-Tris pH 5.5 with 300 mM NaCl), 30 min at room temperature, Superdex75 HR 30/100 GL.
In assay [15] the target is EssB^Δ N115C (cysteine-free template C48S, C108S, C171S), MTSSL spin-labelled (Geobacillus thermodenitrificans NG80-2). The experiment in a line: SEC; detergent-solubilised membrane-bound protein; Superdex200 HR 30/100 GL, buffers with 0.02% DDM and 1 ug/ml DOPC.
Assay [16] has as its target EssB^Δ (membrane-bound EssB truncated by 31 C-terminal residues) (Geobacillus thermodenitrificans NG80-2). The assay is described as above.
The target in assay [17] is EssB^Δ E273C (cysteine-free template C48S, C108S, C171S), MTSSL spin-labelled (Geobacillus thermodenitrificans NG80-2). The assay is described as above.
For assay [18], the target named is EssB (full-length, membrane-bound, Geobacillus thermodenitrificans NG80-2) (Geobacillus thermodenitrificans NG80-2). Described as above.
Assay [19] has as its target EssB-N D54C (cysteine-free template C48S, C108S, C171S), MTSSL spin-labelled (Geobacillus thermodenitrificans NG80-2). Kind of assay: SEC; EssB-N cysteine mutants before and after MTSSL labelling (data not shown).

Broadly, the stoichiometry N is the number of molecules, sites or subunits per partner or assembly. On to “EssB-C (C-terminal extracytosolic fragment of EssB, Ala241 to Lys428) (domain or fragment)”, for which the stoichiometry N in assay [1] and in assay [2] was 2 in each case. The substance “EssB^Δ R86C (cysteine-free template C48S, C108S, C171S), MTSSL spin-labelled (domain or fragment)” displayed a stoichiometry N in assay [3] of 2. The substance “EssB-N D54C (cysteine-free template C48S, C108S, C171S), before MTSSL labelling (domain or fragment)” gave a stoichiometry N in assay [4] of 2. For the substance “EssB^Δ E59C (cysteine-free template C48S, C108S, C171S), MTSSL spin-labelled (domain or fragment)”, in [5], the stoichiometry N is 2. As to “EssB-C^Δ (C-terminally truncated extracytosolic fragment of EssB, Ala241 to Gln397) (domain or fragment)”, the stoichiometry N in assay [6] and in [7] was 2 each time.

Substance “EssB^Δ E139C (cysteine-free template C48S, C108S, C171S), MTSSL spin-labelled (domain or fragment)” registered a stoichiometry N in assay [8] of 2. Substance “EssB^Δ E197C (cysteine-free template C48S, C108S, C171S), MTSSL spin-labelled (domain or fragment)” came in with a stoichiometry N in [9] of 2. In turn, “EssB^Δ S93C (cysteine-free template C48S, C108S, C171S), MTSSL spin-labelled (domain or fragment)” returned a stoichiometry N in [10] of 2. In assay [11], “EssB^Δ D54C (cysteine-free template C48S, C108S, C171S), MTSSL spin-labelled (domain or fragment)” gave a stoichiometry N of 2. Regarding “EssB-N (N-terminal, predicted cytoplasmic fragment of EssB, Ser2 to Asp214) (domain or fragment)”, the percent monomeric in assay [12] is above 10%. Besides, the stoichiometry N in assay [13] and in assay [14] was 2 throughout. For the substance “EssB^Δ N115C (cysteine-free template C48S, C108S, C171S), MTSSL spin-labelled (domain or fragment)”, the stoichiometry N in assay [15] amounted to 2. For the substance “EssB^Δ (membrane-bound EssB truncated by 31 C-terminal residues) (domain or fragment)”, the stoichiometry N in assay [16] was 2.

Substance “EssB^Δ E273C (cysteine-free template C48S, C108S, C171S), MTSSL spin-labelled (domain or fragment)” came in with a stoichiometry N in assay [17] of 2. “EssB (full-length, membrane-bound, Geobacillus thermodenitrificans NG80-2) (natural protein)” gave a stoichiometry N in assay [18] of 2. With “EssB-N D54C (cysteine-free template C48S, C108S, C171S), MTSSL spin-labelled (domain or fragment)”, in assay [19], the stoichiometry N turned out to be 2.
